Laboratory results: article doi:10.1101/790667 (bioRxiv, 2019)
* marks the point of attachment. Dansyl = CN(C)c1cccc2c(S(=O)(=O)*)cccc12

T1: human CASK PDZ domain (residues 487-572) (human, UniProt O14936 487-572)
T1 sequence (looked up): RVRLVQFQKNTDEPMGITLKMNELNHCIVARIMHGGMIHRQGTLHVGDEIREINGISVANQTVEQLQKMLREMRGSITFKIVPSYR

B1: Neurexin peptide (residues 1,470-1,477) (peptide)
peptide: Dansyl-NKDKEYYV-OH
SMILES: CC(C)[C@H](NC(=O)[C@H](Cc1ccc(O)cc1)NC(=O)[C@H](Cc1ccc(O)cc1)NC(=O)[C@H](CCC(=O)O)NC(=O)[C@H](CCCCN)NC(=O)[C@H](CC(=O)O)NC(=O)[C@H](CCCCN)NC(=O)[C@H](CC(N)=O)NS(=O)(=O)c1cccc2c(N(C)C)cccc12)C(=O)O
B2: Syndecan1 peptide (residues 303-310) (peptide)
peptide: Dansyl-TKQEEFYA-OH
SMILES: C[C@H](NC(=O)[C@H](Cc1ccc(O)cc1)NC(=O)[C@H](Cc1ccccc1)NC(=O)[C@H](CCC(=O)O)NC(=O)[C@H](CCC(=O)O)NC(=O)[C@H](CCC(N)=O)NC(=O)[C@H](CCCCN)NC(=O)[C@@H](NS(=O)(=O)c1cccc2c(N(C)C)cccc12)[C@@H](C)O)C(=O)O
B3: Caspr4 peptide (residues 1,301-1,308) (peptide)
peptide: Dansyl-ENQKEYFF-OH
SMILES: CN(C)c1cccc2c(S(=O)(=O)N[C@@H](CCC(=O)O)C(=O)N[C@@H](CC(N)=O)C(=O)N[C@@H](CCC(N)=O)C(=O)N[C@@H](CCCCN)C(=O)N[C@@H](CCC(=O)O)C(=O)N[C@@H](Cc3ccc(O)cc3)C(=O)N[C@@H](Cc3ccccc3)C(=O)N[C@@H](Cc3ccccc3)C(=O)O)cccc12

molecular target: T1, human CASK PDZ domain (residues 487-572); assay: differential scanning fluorimetry

binding result	Binder
binds	B1
binds	B2
binds	B3
